Like-named read-outs stand apart in the source and are kept apart here. Each block holds one binder with its values, some of them ahead of it. Starred links: 1 amine or outer side, 2 acyl side, 3 side chain; linkers in the order of their positions; H or OH if unused. Positions of bridges follow the written chain, without caps; N, C: chain ends. Non-standard residues stand in square brackets, D forms with d. Primed or numbered codes have the meaning given here. *: point of attachment. PyrS2(3) = (S)-3-amino-1-((pent-4-en-1-yloxy)carbonyl)pyrrolidine-3-carboxylic acid, stapling residue, C=CCCCOC(=O)N1CC[C@@](N[*:1])(C(=O)[*:2])C1; PyrS2″ = (S)-3-amino-1-((pent-4-en-1-yloxy)carbonyl)pyrrolidine-3-carboxylic acid (stapling residue), C=CCCCOC(=O)N1CC[C@@](N[*:1])(C(=O)[*:2])C1; B5(16) = 2-amino-2-(pent-4-en-1-yl)hept-6-enoic acid = 2,2-bis(4-pentenyl)glycine (stitching residue), C=CCCCC(CCCC=C)(N[*:1])C(=O)[*:2]; B5(4) = 2,2-bis(4-pentenyl)glycine = 2-amino-2-(pent-4-en-1-yl)hept-6-enoic acid (stitching residue), C=CCCCC(CCCC=C)(N[*:1])C(=O)[*:2]; B5(5) = 2,2-bis(4-pentenyl)glycine, 2-amino-2-(pent-4-en-1-yl)hept-6-enoic acid (stitching residue), C=CCCCC(CCCC=C)(N[*:1])C(=O)[*:2]; TfeGA = (S)-2-amino-3-((carboxymethyl)(2,2,2-trifluoroethyl)amino)propanoic acid, O=C([C@H](CN(CC(=O)[*:3])CC(F)(F)F)N[*:1])[*:2]; PyrS2 = (S)-3-amino-1-((pent-4-en-1-yloxy)carbonyl)pyrrolidine-3-carboxylic acid, C=CCCCOC(=O)N1CC[C@@](N[*:1])(C(=O)[*:2])C1; EtGA = (S)-2-amino-3-((carboxymethyl)(ethyl)amino)propanoic acid, CCN(CC(=O)[*:3])C[C@H](N[*:1])C(=O)[*:2]; B5(3) = 2,2-bis(4-pentenyl)glycine (stitching residue), C=CCCCC(CCCC=C)(N[*:1])C(=O)[*:2]; B5″ = 2,2-bis(4-pentenyl)glycine, stitching residue, C=CCCCC(CCCC=C)(N[*:1])C(=O)[*:2]; 2COOHF″ = O=C([C@H](Cc1ccccc1C(=O)[*:3])N[*:1])[*:2]; Phe(2-Cl) = N[C@@H](Cc1ccccc1Cl)C(=O)O; Bta = N[C@@H](Cc1csc2ccccc12)C(=O)O; αAllylPro = C=CC[C@@]1(C(=O)O)CCCN1; tBuAla = CC(C)(C)C[C@H](N)C(=O)O; 3Thi = N[C@@H](Cc1ccsc1)C(=O)O; S8 = C=CCCCCCC[C@](C)(N)C(=O)O; PyrS2(4) = not defined here; Alaol = C[C@@H](CO)N*
Tests used:
[1] = target: T1, B-cat-Halo (NanoBRET construct expressed in HEK293 cells) (UniProt P35222 1-781, HaloTag NanoBRET 618 Ligand bound in the assay); assay: cell-based or functional assay
T1 sequence (looked up): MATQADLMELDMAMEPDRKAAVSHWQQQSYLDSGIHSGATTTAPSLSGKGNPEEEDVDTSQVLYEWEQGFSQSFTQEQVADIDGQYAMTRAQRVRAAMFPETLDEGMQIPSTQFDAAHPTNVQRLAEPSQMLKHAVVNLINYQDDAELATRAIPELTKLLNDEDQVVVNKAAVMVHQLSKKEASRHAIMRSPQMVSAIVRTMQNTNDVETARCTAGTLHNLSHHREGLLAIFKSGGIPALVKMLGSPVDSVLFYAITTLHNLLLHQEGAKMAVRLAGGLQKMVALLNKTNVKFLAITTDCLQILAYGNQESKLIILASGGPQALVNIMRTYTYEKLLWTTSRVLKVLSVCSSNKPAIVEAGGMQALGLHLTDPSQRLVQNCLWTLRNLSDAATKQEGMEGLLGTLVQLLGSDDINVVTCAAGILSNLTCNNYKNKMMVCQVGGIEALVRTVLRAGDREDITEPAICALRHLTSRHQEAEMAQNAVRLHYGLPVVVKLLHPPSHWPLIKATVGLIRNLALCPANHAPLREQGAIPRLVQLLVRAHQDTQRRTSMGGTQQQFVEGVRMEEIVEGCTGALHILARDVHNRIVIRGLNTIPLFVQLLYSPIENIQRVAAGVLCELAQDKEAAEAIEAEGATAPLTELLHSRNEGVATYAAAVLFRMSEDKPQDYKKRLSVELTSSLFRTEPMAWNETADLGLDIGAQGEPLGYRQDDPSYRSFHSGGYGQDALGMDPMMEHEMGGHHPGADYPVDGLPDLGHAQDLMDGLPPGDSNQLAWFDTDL

[2] = target: T2, beta-catenin (in DLD1 TCF/LEF luciferase reporter cells) (UniProt P35222 1-781); assay: cell-based or functional assay
T2 sequence (looked up): T1 sequence (looked up)

[3] = target: T3, B-cat-Halo (beta-catenin HaloTag NanoBRET construct expressed in HEK293 cells) (UniProt P35222 1-781); assay: cell-based or functional assay
T3 sequence (looked up): T1 sequence (looked up)

[4] = target: T4, beta-catenin in DLD1 TCF/LEF luciferase reporter cells (UniProt P35222 1-781); assay: cell-based or functional assay
T4 sequence (looked up): T1 sequence (looked up)

[5] = target: T5, full-length beta-Catenin (Uniprot ID P35222) (Homo sapiens (Human), UniProt P35222 1-781); assay: fluorescence polarization competition; full-length beta-catenin, competitor 5FAM-TCF4(10-53) probe
T5 construct: The FP protocol says full-length beta-Catenin (Uniprot ID P35222); also called bCat; B-Catenin
T5 sequence: T1 sequence (looked up)
How it was run: (§1)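 Fluorescence polarization was read in duplicate after the plate sat 60 minutes at 20° C. shielded from light. Values come from fitting to a 1:1 binding model with hill slope.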

[6] = target: T6, B-cat-Halo (beta-catenin HaloTag NanoBRET construct expressed in HEK293 cells) (UniProt P35222 1-781); assay: cell-based or functional assay; remark: listed apart in the source
T6 sequence (looked up): T1 sequence (looked up)

[7] = target: T7, beta-catenin in DLD1 TCF/LEF luciferase reporter cells (UniProt P35222 1-781); assay: cell-based or functional assay; remark: listed apart in the source
T7 sequence (looked up): T1 sequence (looked up)

B-cat-Halo = target: T8, B-cat-Halo (UniProt P35222 1-781); assay: cell-based or functional assay
T8 sequence (looked up): T1 sequence (looked up)

[8] = target: T9, beta-catenin in DLD1 TCF/LEF luciferase reporter cells (UniProt P35222 2-781); assay: cell-based or functional assay
T9 sequence (looked up): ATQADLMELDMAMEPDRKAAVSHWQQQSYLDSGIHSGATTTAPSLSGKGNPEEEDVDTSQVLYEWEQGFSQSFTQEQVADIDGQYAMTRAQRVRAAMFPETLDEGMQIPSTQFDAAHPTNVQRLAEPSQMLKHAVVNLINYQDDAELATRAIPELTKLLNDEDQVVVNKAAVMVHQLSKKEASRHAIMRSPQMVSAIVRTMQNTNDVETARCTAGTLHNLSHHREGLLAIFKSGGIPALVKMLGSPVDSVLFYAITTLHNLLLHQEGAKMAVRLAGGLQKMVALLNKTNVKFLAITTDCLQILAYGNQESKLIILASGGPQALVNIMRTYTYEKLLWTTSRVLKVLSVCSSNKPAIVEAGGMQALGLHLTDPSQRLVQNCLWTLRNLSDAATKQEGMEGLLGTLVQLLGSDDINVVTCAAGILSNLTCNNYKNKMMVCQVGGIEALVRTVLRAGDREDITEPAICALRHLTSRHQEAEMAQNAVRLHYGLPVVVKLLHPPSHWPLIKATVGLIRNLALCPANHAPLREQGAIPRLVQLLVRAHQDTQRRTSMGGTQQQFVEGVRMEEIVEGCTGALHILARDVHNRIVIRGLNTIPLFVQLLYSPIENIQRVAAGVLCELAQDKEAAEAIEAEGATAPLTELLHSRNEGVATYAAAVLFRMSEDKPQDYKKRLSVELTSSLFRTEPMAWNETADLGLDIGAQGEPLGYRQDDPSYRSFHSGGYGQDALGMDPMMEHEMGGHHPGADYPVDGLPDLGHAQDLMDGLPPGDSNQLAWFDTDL

[9] = target: T10, B-cat-Halo (beta-catenin HaloTag NanoBRET construct expressed in HEK293 cells) (Homo sapiens (Human), UniProt P35222 1-781); assay: cell-based or functional assay
T10 sequence: T1 sequence (looked up)

[10] = target: T11, beta-catenin in DLD1 TCF/LEF luciferase reporter cells (Homo sapiens (Human), UniProt P35222 2-781); assay: cell-based or functional assay
T11 sequence: T9 sequence (looked up)

[11] = target: T12, full-length beta-Catenin (Uniprot ID P35222) (Homo sapiens (Human), UniProt P35222 2-781); assay: fluorescence polarization competition; full-length beta-catenin, competitor 5FAM-TCF4(10-53) probe
T12 construct: also called bCat; B-Catenin
T12 sequence: T9 sequence (looked up)
How it was run: as §1

NanoBRET Abs IC50 [6]: 11.9 µM
B3: I-703 (peptide)
peptide: Ac-[αAllylPro]D[tBuAla][B5(5)]D[TfeGA]AAFN[S8]F[Bta]Q-NH2
modifications: staple 1-4, 4-11

DLD1 4% Abs IC50 [7]: 1.3 µM
B4: I-1667 (peptide)
peptide: Ac-[αAllylPro]D[tBuAla][B5(16)]D[2COOHF″]AAFL[PyrS2(4)][3Thi][Bta]S-NH2
modifications: staple 1-4, 4-11; not fully specified; reading uncertain

The remaining lines, values behind:

B1: I-762 (peptide)
peptide: Ac-[αAllylPro]D[tBuAla][B5″]D[TfeGA]AAFN[PyrS2(3)][3Thi][Bta]Q-NH2
modifications: staple 1-4, 4-11
NanoBRET Abs IC50 [1]: 14 µM
DLD1 4% Abs IC50 [2]: 7.9 µM

B2: I-1051 (peptide)
peptide: Ac-[αAllylPro]DF[B5(4)]DDAAFS[PyrS2][Phe(2-Cl)][Bta]S-NH2
modifications: staple 1-4, 4-11
NanoBRET Abs IC50 [3]: > 20 µM
DLD1 reporter assay Abs IC50 [4]: > 20 µM
EC50 [5]: 0.014 µM

B5: I-973 (peptide)
peptide: Ac-[αAllylPro]D[tBuAla][B5(3)]D[EtGA]AAFL[PyrS2″][3Thi][Bta]Q-NH2
modifications: staple 1-4, 4-11; also: later-eluting HPLC isomer
NanoBRET Abs IC50 (B-cat-Halo): 19 µM
DLD1 4% Abs IC50 [8]: 10.1 µM

B6: I-1246 (peptide)
peptide: Ac-[αAllylPro]D[tBuAla][B5(4)]DDAAFT[PyrS2″][Phe(2-Cl)][Bta]-Alaol
modifications: staple 1-4, 4-11; also: C-terminal Alao1 group, meaning not given here
NanoBRET Abs IC50 [9]: 24.3 µM
DLD1 4% Abs IC50 [10]: 16.2 µM

B7: I-1158 (peptide)
peptide: Ac-[αAllylPro]DF[B5(4)]DDLLFT[PyrS2″][Phe(2-Cl)][Bta]S-NH2
modifications: staple 1-4, 4-11
notes: '2C1F' is printed for 2ClF
IC50 [11]: 0.168 µM
